Laboratory results from patent publication US5536822A, “γ-phosphate linked adenosine 5' triphosphate sepharose” (University of Virginia Alumni Patents Foundation, priority 1994, dated 1996).

Legend:
[1] = system: Nc1ncnc2c1ncn2[C@@H]1O[C@H](COP(=O)(O)OP(=O)(O)OP(=O)(O)O)[C@@H](O)[C@H]1O; assay: purified protein, by the assay type; conditions: other: cyclic A kinase; pH 7.4
Source text: However, since the Km for ATP varied for each protein kinase tested, for comparative purposes it was convenient to determine the Ki /Km quotient (Table 1).

[2] = system: T1, Nc1ncnc2c1ncn2[C@@H]1O[C@H](COP(=O)(O)OP(=O)(O)OP(=O)(O)O)[C@@H](O)[C@H]1O; assay: Inhibition constant of the ATP derivative / Km for ATP, p60^c-src assay (peptide substrate); assay type: biochemical; conditions: other: p60^c-src; pH 7.4
T1 construct: Department of Microbiology, University of Virginia (obtained from; not a purchase)
Source text: [γ-^32 P] ATP was synthesized according to the procedure set forth in Johnson et al., Advances in Cyclic Nucleotide Research, 10:135-167 (1979). The catalytic subunit of cyclic-AMP-dependent protein kinase was purchased from Promega. p60^c-arc was obtained from the Department of Microbiology, University of Virginia. Recombinant p42^mapk was purified as described in Haystead et al., (1992) FEBS Lett., 306:17-22. STE7 antibody was obtained from the University of Vancouver, Canada.
The 42-kDa MAP kinase (p42^mapk) and MAPKK were assayed as described previously (Haystead et al. (1992) FEBS. Lett., 306:17-22). The cyclic-A kinase assays (30 μl) included 1 μg cyclic-A kinase, 2 mM Kemptide, 50 mM Hepes, pH 7.4, 1 mM dithiothreitol, 200 μM ATP, 5 mM MgCl2. […]
In order to assess the effectiveness of adenosine 5'-(γ-4-aminophenyl)triphosphate as an affinity ligand for protein kinases, the inhibition constants (Ki) of the derivative were determined for four different protein kinases, namely, p42^mapk, cyclic-A kinase, MAPKK and p60^c-arc (Table 1). […] This also facilitated comparisons for the relative binding constants determined with other ATP analogs (Flockhart et al. (1984) Eur. J. Biochem., 140:289-295; Hoppe et al. (1972) Eur. J. Biochem., 80:369-372; Taylor et al. (1990) Peptides and Protein Phosphorylation (Kemp et al.) pp 2-32, CRC Press).

| Substance | Km [1] [µM] | Km [2] [µM] |
| --- | --- | --- |
| Cyclic A kinase (Bos taurus) | 7.1 ± 0.51 | – |
| p60^c-src (Homo sapiens) | – | 6.2 ± 1.30 |
